Experimental data reported in patent US20240053350A1.

Molecular target: immobilized peptides having F NTAA residue (F-P2 peptides of the 484-peptide P1-P2 array)
Assay: cell-based or functional assay

nucleotides inserted into the recording tag per encoding cycle (nt per encoding cycle): 5 to 8
B1: TdT-F4R10 conjugate (designed binder)
chain: GSSHHHHHHGGSSDSPVDLKPKPKVKPKLERPKLYKVMLLNDNSTPGEFVTVVLKAVFRMSEDTGRRVMMTAHRFGSAVVVVSERDIAETKAKEATDLGKEAGFPLMFTTEPEEGAPSGAPSGAPSGAPSGAPSGAPSSPSPVPGSQNVPAPAVKKISQYACQRRTTLNNYNQLFTDALDILAENDELRENEGSCLAFMRASSVLKSLPFPITSMKDTEGIPCLGDKVKSIIEGIIEDGESSEAKAVLNDERYKSFKLFTSVFGVGLKTAEKWFRMGFRTLSKIQSDKSLRFTQMQKAGFLYYEDLVSCVNRPEAEAVSMLVKEAVVTFLPDALVTMTGGFRRGKMTGHDVDFLITSPEATEDEEQQLLHKVTDFWKQQGLLLYCDILESTFEKFKQPSRKVDALDHFQKCFLILKLDHGRVHSEKSGQQEGKGWKAIRVDLVMCPYDRRAFALLGWTGSRQFERDLRRYATHERKMMLDNHALYDRTKRVFLEAESEEEIFAHLGLDYIEPWERNA
